Experimental data: the supplement of paper PMC9170038

Tested on: MS2 coat protein
Assay: apparent KD of MS2 coat protein; designed switch direction (-1 OFF switch, 1 ON switch): -1; higher = weaker reporter binding
In short: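 An oligonucleotide input, 200 uM small-molecule ligand, or no input was present during titration of SNAP-549-labelled MS2 coat protein, which was doubled from 0.7 or 1.5 nM to 3 µM. Designed RNA switches had been transcribed on Illumina chips by stalled E. coli RNA polymerase. Apparent KD per design is the median over clusters of curves fitted to normalised cluster fluorescence.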

[1] = input ligand: microRNA oligo, concentration not stated
[2] = Eterna round: R95, input ligand: microRNA oligo, concentration not stated
[3] = Eterna round: R95, input ligand: FMN 200 uM
[4] = Eterna round: R95, input ligand: none

| Sequence | apparent KD of MS2 coat protein (input ligand: FMN 200 uM) | apparent KD of MS2 coat protein (input ligand: none) | apparent KD of MS2 coat protein [2] | other results |
| --- | --- | --- | --- | --- |
| GGUCAUCAAGUCAGGAUAUCGUCUAAUCAAUCAGGCGAGAAGGGACAUGAGGAUCACCCAUGUCGACUCAUCAG [Ex4 #6] (Eterna round: R97, puzzle: Brourd's mod of Exclusion 4) | 130 nM | 33.5 nM |  |  |
| GGUCCACAUGAGGAUCACCCAUGUUAGGAUAUCUCCCGCCUCCUCACUGGAGACGGACAGAGAAGGAACAUCAA [Vetibele] (Eterna round: R96, puzzle: Exclusion 1) | 104 nM | 24.3 nM |  | apparent KD of MS2 coat protein [1]: 20.5 nM |
| GGUCCACAUGAGGAUCACCCAUGUUAGGAUAUCUCCCGCCUCCUCACUGGAGACGGACAGAGAAGGAACAUCAA [Vetibele] (puzzle: Exclusion 1) |  |  | 23.7 nM |  |
| GGUCGACAUGAGGAUCACCCAUGUCAGGAUAUCGUCACUGGAGCUUCGGCUCCAGUGACGAGAAGGGAUAUAAU [E1/15-A1] (Eterna round: R97, puzzle: Exclusion 1) | 24.6 nM | 36.9 nM |  |  |
| GGUCUACAUGAGGAUCACCCAUGUCAGGAUAUCGUGUGUUUUUUUUCGGCCGCGCGUGCGAGAAGGGACGUCUU (puzzle: Exclusion 1) |  |  | 16.6 nM |  |
| GGUGAGAGCAAGGAUAUGCAGAAGAGAGAAAGAGCAGAAGGUGCUACAUGAGGAUCACCCAUGUUGGAUGUGUU [JR_E6_Sub014] (puzzle: Exclusion 6) |  |  | 35.6 nM | apparent KD of MS2 coat protein [3]: 46.3 nM; apparent KD of MS2 coat protein [4]: 39.3 nM |
| GGUGCGUAUGUGAGGAUAUGCUGGUCCUUGGAUCAGCAGAAGGCACAUGAGGAUCACCCAUGUGGUGUCGUACA [salish99_Bmod_Ex4_014] (puzzle: Brourd's mod of Exclusion 4) |  |  | 255 nM |  |
| GGUGCGUAUGUGAGGAUAUGCUGGUCCUUGGAUCGGCAGAAGGCACAUGAGGAUCACCCAUGUGGUGUCGUACC [salish99_Bmod_Ex4_023] (puzzle: Brourd's mod of Exclusion 4) |  |  | 165 nM |  |
| GGUGCGUUUGUGAGGAUAUGCUGGUCCUUGGAUCAGCAGAAGGCACAUGAGGAUCACCCAUGUGGUGUCCGUCC [salish99_Bmod_Ex4_039] (puzzle: Brourd's mod of Exclusion 4) |  |  | 180 nM |  |
| GGUGCGUUUGUGAGGAUAUGCUGGUCCUUGGCUCAGCAGAAGGCACAUGAGGAUCACCCAUGUGGUGUCGUACC [salish99_Bmod_Ex4_033] (puzzle: Brourd's mod of Exclusion 4) |  |  | 239 nM |  |
| GGUGCGUUUGUGAGGAUAUGCUGGUCCUUGGUUCGGCAGAAGGCACAUGAGGAUCACCCAUGUGGUGUCGUACC [salish99_Bmod_Ex4_043] (puzzle: Brourd's mod of Exclusion 4) |  |  | 15.7 nM |  |
| GGUGGACAUGAGGAUCACCCAUGUGAGGAUAUCGGCCGGCUAGUGGCGGCUGGCUUCUCGAGAAGGCGCAUAGU [Exclusion 1 V77] (puzzle: Exclusion 1) |  |  | 37.3 nM |  |
| GGUGGACAUGAGGAUCACCCAUGUGAGGAUAUCGGCCGGUUCGCGGUGGCUGGCGUCUCGAGAAGGCGCAUAGU [Exclusion 1 V71] (puzzle: Exclusion 1) |  |  | 28.7 nM |  |
| GGUGGACAUGAGGAUCACCCAUGUGAGGAUAUCGGCUAUCUACUCGCUGACGGCUGCUCGAGAAGGCACAUUGU [Exclusion 1 V91] (puzzle: Exclusion 1) |  |  | 54.6 nM |  |
| GGUGGACAUGAGGAUCACCCAUGUGAGGAUAUCGGCUAUCUACUCGCUGACGGUUGCUCGAGAAGGCACAUUGU [Exclusion 1 V92] (puzzle: Exclusion 1) |  |  | 90.9 nM |  |
| GGUGGACAUGAGGAUCACCCAUGUGAGGAUAUCGGCUGGUACGUGUUGGCUGGCAUCUCGAGAAGGCACAUAGG [Exclusion 1 V60] (puzzle: Exclusion 1) |  |  | 102 nM |  |
| GGUGGACAUGAGGAUCACCCAUGUGAGGAUAUCGGCUGGUGCGUGGUGGCUGGCAUCUCGAGAAGGCACAUAGU [Exclusion 1 V67] (puzzle: Exclusion 1) |  |  | 70.5 nM |  |
| GGUGUGGCAGGAUAUACAUCGAAGGGUGCAAAGGGCUCGGCACAUGAGGAUCACCCAUGUAGAAGGGCCUACCA [Beated] (Eterna round: R96, puzzle: Exclusion 2) | 25.3 nM | 15.6 nM |  | apparent KD of MS2 coat protein [1]: 13.6 nM |
| GGUUAUUGCAAGGAUAUGCUUUUUUGUGAAAUUGCAGAAGGUGCAACAUGAGGAUCACCCAUGUUGGAUGGGUU [JR_E6_Sub017] (puzzle: Exclusion 6) |  |  | 93.7 nM |  |

| Sequence | apparent KD of MS2 coat protein (input ligand: FMN 200 uM) | apparent KD of MS2 coat protein (input ligand: none) | apparent KD of MS2 coat protein [2] | other results |
| --- | --- | --- | --- | --- |
| GGUUAUUGCAAGGAUAUGCUUUUUUUUGAAAUUGCAGAAGGUGCAACAUGAGGAUCACCCAUGUUGGAUGGGUU [JR_E6_Sub018] (Eterna round: R96, puzzle: Exclusion 6) | 252 nM | 194 nM |  | apparent KD of MS2 coat protein [1]: 161 nM |
| GGUUAUUGCAAGGAUAUGCUUUUUUUUGAAAUUGCAGAAGGUGCAACAUGAGGAUCACCCAUGUUGGAUGGGUU [JR_E6_Sub018] (puzzle: Exclusion 6) |  |  | 106 nM |  |
| GGUUGCGCAGGAUAUACAUGAGGAUCACCCAUGUGAGAGAAAUAAGUGAGGAAGAAAAGUAGAAGGGCGUGACA [Mat - Exclusion 3 - Mod of Salish D75] (puzzle: Exclusion 3) |  |  | 45.3 nM | apparent KD of MS2 coat protein [3]: 175 nM; apparent KD of MS2 coat protein [4]: 58.9 nM |
| GGUUGGCGAGGAUAUACAUGAGGAUCACCCAUGUGAGAAAUAAAAGUGAGGAAGAAAAGUAGAAGGCGCUGACG [Mat - Exclusion 3 - Mod of Salish D3] (puzzle: Exclusion 3) |  |  | 50.4 nM | apparent KD of MS2 coat protein [3]: 188 nM; apparent KD of MS2 coat protein [4]: 83.9 nM |
| GGUUGGCGAGGAUAUACAUGAGGAUCACCCAUGUGAGAGAAAAAAGUGAGGAAGAAACGUAGAAGGCGCUGACG [salish99_ex3_r3_037] (puzzle: Exclusion 3) |  |  | 34.2 nM | apparent KD of MS2 coat protein [3]: 42.6 nM; apparent KD of MS2 coat protein [4]: 45.2 nM |
| GUAAACGUAUAGGAUAUUUCAGGUCAAAGCUGCAAAGAAGGAUACACAUGAGGAUCACCCAUGUGGUCAAUAAA [Mod of Quesina 23 - Jieux - Exclusion 6] (Eterna round: R97, puzzle: Exclusion 6) | 42.2 nM | 20.4 nM |  |  |
| GUAAAUCAUGUAGGAUAUGCGUGGCGAAGCUAUGCAGAAGGACAUGAGGAUCACCCAUGUGCUUGCGUCCGCGUACGGAUGCAA [Mat - Exclusion NG 1 - Mod of JL - D70] (Eterna round: R96, puzzle: Exclusion NG 1) | 292 nM | 237 nM |  | apparent KD of MS2 coat protein [1]: 124 nM |
| GUAACAUGCUGGUGAUCAUACAUGAGGAUCACCCAUGUAACAAGCUUUUUGCUCGUCUUAAUUUAAUUGAUUACUAG [Stov1/8-A2] (Eterna round: R97, puzzle: Sensor, turn-off variant 1) | 137 nM | 106 nM |  |  |
| GUACCCAAAGGAUAUACUUGAGGAUCACCCAAGUAUGUCGCUUGGGCACGGUAAAGGAGUAGAAGGUUGGGAAG [Aedti] (Eterna round: R97, puzzle: Exclusion 3) | 12.5 nM | 11.8 nM |  |  |
| GUACUGAAGCUUUGCUUUAGUCGUACAUGAGGAUCACCCAUGUAGGAUAUGGUAGGCUUUGCUUACUAGAAGGAUAGAGUGAUC [JL EXNG3 1.27] (Eterna round: R96, puzzle: Exclusion NG 3) | 81.7 nM | 119 nM |  | apparent KD of MS2 coat protein [1]: 31.7 nM |
| GUAGAGUAAGGAUAUACUGAAUAGGAUAGAAUGGUUAGAAAGUAGAAGGUACAUGAGGAUCACCCAUGUAAUGU [Excluse me!!!! 19 - Jieux - Exclusion 4] (Eterna round: R96, puzzle: Exclusion 4) | 20.9 nM | 24 nM |  | apparent KD of MS2 coat protein [1]: 18.6 nM |
| GUAGAGUAAGGAUAUACUGAAUAGGAUAGAAUGGUUAGAAAGUAGAAGGUACAUGAGGAUCACCCAUGUAAUGU [Excluse me!!!! 19 - Jieux - Exclusion 4] (puzzle: Exclusion 4) |  |  | 20.4 nM |  |
| GUAGAGUCAGGAUAUACAAGAUCGAUAGAUCGGCGAUCCAUACAUGAGGAUCACCCAUGUAGAAGGGACUCUAC [Mat - Exclusion 2 - Eli Mod - D3] (Eterna round: R97, puzzle: Exclusion 2) | 693 nM | 40.2 nM |  |  |
| GUAGAGUCAGGAUAUACGAGAUCGAAAGAUCGGCGAUCCAUACAUGAGGAUCACCCAUGUAGAAGGGACUCUAC [ChP 11-04-2015 #5] (Eterna round: R96, puzzle: Exclusion 2) | 177 nM | 19.1 nM |  | apparent KD of MS2 coat protein [1]: 14.8 nM |
| GUAGAGUCAGGAUAUACGAGAUCGAAAGAUCGGCGAUCCAUACAUGAGGAUCACCCAUGUAGAAGGGACUCUAC [ChP 11-04-2015 #5] (puzzle: Exclusion 2) |  |  | 14.2 nM |  |
| GUAGAGUGAGGAUAUACAAGAUCGAAAGAUCGGCGAUCCAUACAUGAGGAUCACCCAUGUAGAAGGCACUCUAC [Eli x2 4.007] (Eterna round: R97, puzzle: Exclusion 2) | 678 nM | 102 nM |  |  |
| GUAGGGUCAGGAUAUACGGGCGGGAGGAUGUAUUGUAGUUGGUAGAAGGGACAUGAGGAUCACCCAUGUGAGAA [JR_Exclu4_Sub054] (puzzle: Exclusion 4) |  |  | 31 nM |  |
| GUAUGUAACUAGGAUAUCAGCAUACUUCAAUGUUGAGAAGGAGUUACAUGAGGAUCACCCAUGUAUCCAACAUG [Exclusion 6 - 3:b] (puzzle: Exclusion 6) |  |  | 52.5 nM | apparent KD of MS2 coat protein [3]: 43.4 nM; apparent KD of MS2 coat protein [4]: 69.1 nM |
| GUCACAUGGGUAUAGGAUCACAUGAGGAUCACCCAUGUGACUAACAAGCUUUUUGCUCGUCUUAUGUCUAUGUGAAG [Stov1/18-A1] (Eterna round: R97, puzzle: Sensor, turn-off variant 1) | 42.9 nM | 26.9 nM |  |  |
